Data published in US20210139559A1 (XL PROTEIN, published 2021).

B1: PAS(200)-PDGFRαD123-VEGFR1D2/R2D3 (receptor)
chain: HHHHHHASPAAPAPASPAAPAPSAPAASPAAPAPASPAAPAPSAPAASPAAPAPASPAAPAPSAPAASPAAPAPASPAAPAPSAPAASPAAPAPASPAAPAPSAPAASPAAPAPASPAAPAPSAPAASPAAPAPASPAAPAPSAPAASPAAPAPASPAAPAPSAPAASPAAPAPASPAAPAPSAPAASPAAPAPASPAAPAPSAPAQLSLPSILPNENEKVVQLNSSFSLRCFGESEVSWQYPMSEEESSDVEIRNEENNSGLFVTVLEVSSASAAHTGLYTCYYNHTQTEENELEGRHIYIYVPDPDVAFVPLGMTDYLVIVEDDDSAIIPCRTTDPETPVTLHNSEGVVPASYDSRQGFNGTFTVGPYICEATVKGKKFQTIPFNVYALKATSELDLEMEALKTVYKSGETIVVTCAVFNNEVVDLQWTYPGEVKGKGITMLEEIKVPSIKLVYTLTVPEATVKDSGDYECAARQATREVKEMKKVTISVHEKGSDTGRPFVEMYSEIPEIIHMTEGRELVIPCRVTSPNITVTLKKFPLDTLIPDGKRIIWDSRKGFIISNATYKEIGLLTCEATVNGHLYKTNYLTHRQTNTIIDVVLSPSHGIELSVGEKLVLNCTARTELNVGIDFNWEYPSSKHQHKKLVNRDLKTQSGSEMKKFLSTLTIDGVTRSDQGLYTCAASSGLMTKKNSTFVRVHEK
notes: the tag stands at the N-terminus; also called EPS1110P
B2: PDGFRαD123-PAS(300)-VEGFR1D2/R2D3 (receptor)
chain: QLSLPSILPNENEKVVQLNSSFSLRCFGESEVSWQYPMSEEESSDVEIRNEENNSGLFVTVLEVSSASAAHTGLYTCYYNHTQTEENELEGRHIYIYVPDPDVAFVPLGMTDYLVIVEDDDSAIIPCRTTDPETPVTLHNSEGVVPASYDSRQGFNGTFTVGPYICEATVKGKKFQTIPFNVYALKATSELDLEMEALKTVYKSGETIVVTCAVFNNEVVDLQWTYPGEVKGKGITMLEEIKVPSIKLVYTLTVPEATVKDSGDYECAARQATREVKEMKKVTISVHEKGASPAAPAPASPAAPAPSAPAASPAAPAPASPAAPAPSAPAASPAAPAPASPAAPAPSAPAASPAAPAPASPAAPAPSAPAASPAAPAPASPAAPAPSAPAASPAAPAPASPAAPAPSAPAASPAAPAPASPAAPAPSAPAASPAAPAPASPAAPAPSAPAASPAAPAPASPAAPAPSAPAASPAAPAPASPAAPAPSAPAASPAAPAPASPAAPAPSAPAASPAAPAPASPAAPAPSAPAASPAAPAPASPAAPAPSAPAASPAAPAPASPAAPAPSAPAASPAAPAPASPAAPAPSAPASDTGRPFVEMYSEIPEIIHMTEGRELVIPCRVTSPNITVTLKKFPLDTLIPDGKRIIWDSRKGFIISNATYKEIGLLTCEATVNGHLYKTNYLTHRQTNTIIDVVLSPSHGIELSVGEKLVLNCTARTELNVGIDFNWEYPSSKHQHKKLVNRDLKTQSGSEMKKFLSTLTIDGVTRSDQGLYTCAASSGLMTKKNSTFVRVHEKHHHHHH
notes: Expressed in CHO-3E7 cells, purified over a Ni column; also called EPS1103P
B3: PAS(200)-VEGFR1D2/R2D3-PDGFRαD123 (receptor)
chain: HHHHHHASPAAPAPASPAAPAPSAPAASPAAPAPASPAAPAPSAPAASPAAPAPASPAAPAPSAPAASPAAPAPASPAAPAPSAPAASPAAPAPASPAAPAPSAPAASPAAPAPASPAAPAPSAPAASPAAPAPASPAAPAPSAPAASPAAPAPASPAAPAPSAPAASPAAPAPASPAAPAPSAPAASPAAPAPASPAAPAPSAPASDTGRPFVEMYSEIPEIIHMTEGRELVIPCRVTSPNITVTLKKFPLDTLIPDGKRIIWDSRKGFIISNATYKEIGLLTCEATVNGHLYKTNYLTHRQTNTIIDVVLSPSHGIELSVGEKLVLNCTARTELNVGIDFNWEYPSSKHQHKKLVNRDLKTQSGSEMKKFLSTLTIDGVTRSDQGLYTCAASSGLMTKKNSTFVRVHEKQLSLPSILPNENEKVVQLNSSFSLRCFGESEVSWQYPMSEEESSDVEIRNEENNSGLFVTVLEVSSASAAHTGLYTCYYNHTQTEENELEGRHIYIYVPDPDVAFVPLGMTDYLVIVEDDDSAIIPCRTTDPETPVTLHNSEGVVPASYDSRQGFNGTFTVGPYICEATVKGKKFQTIPFNVYALKATSELDLEMEALKTVYKSGETIVVTCAVFNNEVVDLQWTYPGEVKGKGITMLEEIKVPSIKLVYTLTVPEATVKDSGDYECAARQATREVKEMKKVTISVHEKG
notes: the tag stands at the N-terminus; also called EPS1109P
B4: PDGFRαD123-PAS(600)-VEGFR1D2/R2D3 (receptor)
chain: QLSLPSILPNENEKVVQLNSSFSLRCFGESEVSWQYPMSEEESSDVEIRNEENNSGLFVTVLEVSSASAAHTGLYTCYYNHTQTEENELEGRHIYIYVPDPDVAFVPLGMTDYLVIVEDDDSAIIPCRTTDPETPVTLHNSEGVVPASYDSRQGFNGTFTVGPYICEATVKGKKFQTIPFNVYALKATSELDLEMEALKTVYKSGETIVVTCAVFNNEVVDLQWTYPGEVKGKGITMLEEIKVPSIKLVYTLTVPEATVKDSGDYECAARQATREVKEMKKVTISVHEKGASPAAPAPASPAAPAPSAPAASPAAPAPASPAAPAPSAPAASPAAPAPASPAAPAPSAPAASPAAPAPASPAAPAPSAPAASPAAPAPASPAAPAPSAPAASPAAPAPASPAAPAPSAPAASPAAPAPASPAAPAPSAPAASPAAPAPASPAAPAPSAPAASPAAPAPASPAAPAPSAPAASPAAPAPASPAAPAPSAPAASPAAPAPASPAAPAPSAPAASPAAPAPASPAAPAPSAPAASPAAPAPASPAAPAPSAPAASPAAPAPASPAAPAPSAPAASPAAPAPASPAAPAPSAPAASPAAPAPASPAAPAPSAPAASPAAPAPASPAAPAPSAPAASPAAPAPASPAAPAPSAPAASPAAPAPASPAAPAPSAPAASPAAPAPASPAAPAPSAPAASPAAPAPASPAAPAPSAPAASPAAPAPASPAAPAPSAPAASPAAPAPASPAAPAPSAPAASPAAPAPASPAAPAPSAPAASPAAPAPASPAAPAPSAPAASPAAPAPASPAAPAPSAPAASPAAPAPASPAAPAPSAPAASPAAPAPASPAAPAPSAPAASPAAPAPASPAAPAPSAPAASPAAPAPASPAAPAPSAPAASDTGRPFVEMYSEIPEIIHMTEGRELVIPCRVTSPNITVTLKKFPLDTLIPDGKRIIWDSRKGFIISNATYKEIGLLTCEATVNGHLYKTNYLTHRQTNTIIDVVLSPSHGIELSVGEKLVLNCTARTELNVGIDFNWEYPSSKHQHKKLVNRDLKTQSGSEMKKFLSTLTIDGVTRSDQGLYTCAASSGLMTKKNSTFVRVHEKHHHHHH
notes: also called EPS1113P
B5: PDGFRαD123-(GGGGS)3-PAS(600)-(GGGGS)3-VEGFR1D2/R2D3 (receptor)
chain: QLSLPSILPNENEKVVQLNSSFSLRCFGESEVSWQYPMSEEESSDVEIRNEENNSGLFVTVLEVSSASAAHTGLYTCYYNHTQTEENELEGRHIYIYVPDPDVAFVPLGMTDYLVIVEDDDSAIIPCRTTDPETPVTLHNSEGVVPASYDSRQGFNGTFTVGPYICEATVKGKKFQTIPFNVYALKATSELDLEMEALKTVYKSGETIVVTCAVFNNEVVDLQWTYPGEVKGKGITMLEEIKVPSIKLVYTLTVPEATVKDSGDYECAARQATREVKEMKKVTISVHEKGGGGGSGGGGSGGGGSASPAAPAPASPAAPAPSAPAASPAAPAPASPAAPAPSAPAASPAAPAPASPAAPAPSAPAASPAAPAPASPAAPAPSAPAASPAAPAPASPAAPAPSAPAASPAAPAPASPAAPAPSAPAASPAAPAPASPAAPAPSAPAASPAAPAPASPAAPAPSAPAASPAAPAPASPAAPAPSAPAASPAAPAPASPAAPAPSAPAASPAAPAPASPAAPAPSAPAASPAAPAPASPAAPAPSAPAASPAAPAPASPAAPAPSAPAASPAAPAPASPAAPAPSAPAASPAAPAPASPAAPAPSAPAASPAAPAPASPAAPAPSAPAASPAAPAPASPAAPAPSAPAASPAAPAPASPAAPAPSAPAASPAAPAPASPAAPAPSAPAASPAAPAPASPAAPAPSAPAASPAAPAPASPAAPAPSAPAASPAAPAPASPAAPAPSAPAASPAAPAPASPAAPAPSAPAASPAAPAPASPAAPAPSAPAASPAAPAPASPAAPAPSAPAASPAAPAPASPAAPAPSAPAASPAAPAPASPAAPAPSAPAASPAAPAPASPAAPAPSAPAASPAAPAPASPAAPAPSAPAASPAAPAPASPAAPAPSAPAAGGGGSGGGGSGGGGSSDTGRPFVEMYSEIPEIIHMTEGRELVIPCRVTSPNITVTLKKFPLDTLIPDGKRIIWDSRKGFIISNATYKEIGLLTCEATVNGHLYKTNYLTHRQTNTIIDVVLSPSHGIELSVGEKLVLNCTARTELNVGIDFNWEYPSSKHQHKKLVNRDLKTQSGSEMKKFLSTLTIDGVTRSDQGLYTCAASSGLMTKKNSTFVRVHEKHHHHHH
notes: also called EPS1114P
B6: VEGFR1D2/R2D3-(GGGGS)3-PAS(600)-(GGGGS)3-PDGFRαD123 (receptor)
chain: SDTGRPFVEMYSEIPEIIHMTEGRELVIPCRVTSPNITVTLKKFPLDTLIPDGKRIIWDSRKGFIISNATYKEIGLLTCEATVNGHLYKTNYLTHRQTNTIIDVVLSPSHGIELSVGEKLVLNCTARTELNVGIDFNWEYPSSKHQHKKLVNRDLKTQSGSEMKKFLSTLTIDGVTRSDQGLYTCAASSGLMTKKNSTFVRVHEKGGGGSGGGGSGGGGSASPAAPAPASPAAPAPSAPAASPAAPAPASPAAPAPSAPAASPAAPAPASPAAPAPSAPAASPAAPAPASPAAPAPSAPAASPAAPAPASPAAPAPSAPAASPAAPAPASPAAPAPSAPAASPAAPAPASPAAPAPSAPAASPAAPAPASPAAPAPSAPAASPAAPAPASPAAPAPSAPAASPAAPAPASPAAPAPSAPAASPAAPAPASPAAPAPSAPAASPAAPAPASPAAPAPSAPAASPAAPAPASPAAPAPSAPAASPAAPAPASPAAPAPSAPAASPAAPAPASPAAPAPSAPAASPAAPAPASPAAPAPSAPAASPAAPAPASPAAPAPSAPAASPAAPAPASPAAPAPSAPAASPAAPAPASPAAPAPSAPAASPAAPAPASPAAPAPSAPAASPAAPAPASPAAPAPSAPAASPAAPAPASPAAPAPSAPAASPAAPAPASPAAPAPSAPAASPAAPAPASPAAPAPSAPAASPAAPAPASPAAPAPSAPAASPAAPAPASPAAPAPSAPAASPAAPAPASPAAPAPSAPAASPAAPAPASPAAPAPSAPAASPAAPAPASPAAPAPSAPAASPAAPAPASPAAPAPSAPAAGGGGSGGGGSGGGGSQLSLPSILPNENEKVVQLNSSFSLRCFGESEVSWQYPMSEEESSDVEIRNEENNSGLFVTVLEVSSASAAHTGLYTCYYNHTQTEENELEGRHIYIYVPDPDVAFVPLGMTDYLVIVEDDDSAIIPCRTTDPETPVTLHNSEGVVPASYDSRQGFNGTFTVGPYICEATVKGKKFQTIPFNVYALKATSELDLEMEALKTVYKSGETIVVTCAVFNNEVVDLQWTYPGEVKGKGITMLEEIKVPSIKLVYTLTVPEATVKDSGDYECAARQATREVKEMKKVTISVHEKGHHHHHH
notes: also called EPS1115P

target: T1, human VEGF165 ligand (human, UniProt P15692-4 27-191); assay: serial dilution mixed with 50 pM human VEGF165 in solution, unbound VEGF165 measured by ELISA
T1 construct: also called VEGF-A165
T1 sequence (P15692 other isoform, or with tags, fused parts or gaps limits assumed): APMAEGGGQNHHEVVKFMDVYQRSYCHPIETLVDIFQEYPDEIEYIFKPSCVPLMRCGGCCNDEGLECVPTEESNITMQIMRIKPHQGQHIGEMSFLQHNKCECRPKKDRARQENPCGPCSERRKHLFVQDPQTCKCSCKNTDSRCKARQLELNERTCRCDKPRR
Procedure: The amount of unbound VEGF₁₆₅ was then measured by a human VEGF-specific ELISA (Human VEGF DuoSet ELISA kit, R&D Systems, CAT. No. DY293B-05).
Unbound human VEGF₁₆₅ or PDGF-BB was calculated using 4 parameters curve with the absorbance value. And the IC₅₀ of the tested fusion proteins and the reference was calculated using 4 parameters curve with unbound human VEGF₁₆₅ or PDGF-BB.

IC50	Binder
0.331 nM	B1
0.869 nM	B2
0.218 nM	B3
0.646 nM	B4
0.506 nM	B5
0.44 nM	B6
